Experiment: label from the status in PepcDB records
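Also: failed if final PepcDB status was selected cloned or expressed and not failed if soluble or beyond.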

Row | Sequence | protein production
1 | MIEENLVEFIEILMLATAVAVTVKFIRLPYTIALVLAGLFVGLAGLLPEVPLSREIVFFIFLPPLLFEAAMNMDLKELRENFGPIALIAFLGVVVTTTVVGFSLNWILGIPLALALIFGAMVSATDPVSVLATFKSISAPKKLSILIEGESVLNDGAAIVVFAIALEMMLKGVFDPLNAALDFAVVCVGGAAVGLAVGYLAYRILAKIDDALVEIAVTIVAAYLGFVLAERFHFSGVIAVVAAGLILGNYGRDFSMSPTTRVIMLDFWSVIVFLVNSIIFILIGVNTHITIFSAWKEILVAIAAVILARAFVVYPVMTYYRFPNLWKHVVFWGGLRGVIPVALALSFGNQLLSAMAFGVVLFSLLLQGISLEIFVKRKFVSESERELEEIIARYIAARSAKFELMKAVEQGRIVEPVAREMLPNLDAEIEELRSKLEEKIRGGMGSKLRKAAVKYVIDAKKSAVVDAMAGGLVSQEVALEIMRELDSKTAELME | failed
2 | MSERVKVAILGSGNIGTDLMYKLLKNPGHMELVAVVGIDPKSEGLARARALGLEASHEGIAYILERPEIKIVFDATSAKAHVRHAKLLREAGKIAIDLTPAARGPYVVPPVNLKEHLDKDNVNLITCGGQATIPLVYAVHRVAPVLYAEMVSTVASRSAGPGTRQNIDEFTFTTARGLEAIGGAKKGKAIIILNPAEPPILMTNTVRCIPEDEGFDREAVVASVRAMEREVQAYVPGYRLKADPVFERLPTPWGERTVVSMLLEVEGAGDYLPKYAGNLDIMTASARRVGEVFAQHLLGKPVEEVVA | not failed
3 | MKQKSQMETRFVKPLSCLTLSIITTIGILPPATAQETSPAKSACEQVLSNAEQKPLTKQVQKLAQFADPQQERSQMIQQANALFSQGDLPGAEENLCKFLKKYSDDAFGHFQLGNVFFRGKKVEAAISAYQEAIRLRSRYAVAYNALGIVYASQSRWSEAIVQYQKALEINPDYGDALTNVALALWQTNKKDEALASLEKALNIFKKQNRNEKANQVEQLLQRIKNSDDNLS | failed
4 | MTFASPDDVIRRFDEQNYLLDTGTASAIYLAVTLGRPLLLEGEPGVGKTTAAKTLAVVLDTTLIRLQCYEGLTANEALYDWNYQRQLLSIRLAEARGKGISDISEADLYTEAYLVDRPILRCVRHRGPTPPVLLIDEIDRADDEFEALLLEFLGESAVTVPELGTFLAECPPIAVLTSNRSRDLHDALRRRCLYHWIDYPEPDRAAAIVRRTVPGATAPLIENATQFVCTARDLDLDKPPGVAETIDWVAALVALGVADLTAADSSPALASLGALAKTPDDRTQIRDAYQAFTECSHA | failed
5 | MPHPFVYHDCPMSRLLFRYICTETAVPFALGLTVFTFVLLMGRLLKLAEMVFARGVPFLDVTRLILYMLPSFFLVAIPMAFLLAVLLAMGRLSADSEVTAMKASGMSIGTIAVPVIAFGVITYAATTFVSVYALPWGNTAFKKFLHGVIETRAAMSITEKVFNDEFPGLVIYVDGFDPKSGRISGILIHDERNPDEPSTIFAASGQLATNPEERIVRLRLNNGGIHRGIGTGGYRLVEFTSYDLSIALQREQQKARLNEEDMTLGELLARMKSPGEQPKLVREMHFELHKRFALPFACVVFAVIAVPLGIQNQRSGRAGGFAAGIILLMLYYILMSAGKTVNEKGIAPAFVAVWIPNVLFLGLGIFLLKRAALDRAIPLAEYVTTALAWVRHRFERRKT | failed
6 | MTWSHWEITPFITSVFFILGVLTLFWVSQNWIINFFNTHHWRVDQSLITDWYGLIYMMLFVFGMQTAVVGQNDAWIFMNFQLIGLTFCGYFLNVRVRYYYLYPLVFIFMGFNHSLYYWESWGHAVTLILFFTALGRLRKHVPLQTKQGQVTLYLVTCAGFGAVLWWFMKLKFNLSWATYWQEWTYLLVFASLLYIYASMLSANAHLKQNLVAFANHDALTKIENFAAYKTAINYQVTSSRKNGSQLTMLMFDIDHFKQVNDTYGHLAGDKILQHVAQVATIVFHANNPQISLYRTGGEEFNVIFPNYDLTEALAVAEQLFAAINHIAVPVNDHQIQLSISIGLSELAADDQSPTAFYQRVDANLYHSKKHGRMQITAK | failed
7 | MTRTPLTLEQLNALSDDAFTEHFAGVLEHSPHYARRAAAGRPFADVEEVAAAFARAVAADEPGAQVQLIRAHPDLAGKAALAGELTAESASEQTSAGLDRLSPEEYAEFQRLNAAYHERFGLPYVVCVRENTKDTIFEGARRRLTHTQEEEQAAALHEIGRIARLRILDLVQEGRQEKRMDGRLIRIPLEHHHHHH | failed
8 | MVDADGIYYLGPEGSFTHEAASLFKGKDLKAESTISLVFKRVYERESSIGIVPIENSLEGPVNETLDNLYNYDNIYVIGEIEKKIELVLAARSDNLSQIKRIYSHPHAFNEAREKLKELGFNEYIPVESTSKAAKIVSQDSEAAAICSNFAAKLYNLKVLITISSHNNYTRFIVLSKEMNSNGNKSMILFTVPHKPGALYKVLQVFYEYNINISMIYSRPLKSIPWQYYFYLEYEGGISNREFIEKLVKSTSVLKIKGSFSKLNNDPGF | failed
9 | MRTVVDYGAAIAFGVAYFVTKDFQKATWVLVAASAAALAIGYAVERRLAMLPLFFGGMALVFGTLGLIFGSDVFVKIKVTVINLALASFLVGGVLLKRQPLKVIMGEALHLPDAAWRTLTLRYGAYFAFVAIINEVVRNTQDTDTWVKFRLALLPVALVFVATQLPFMMKHMAKGDDAKAVEPPDAGF | failed
10 | MSLDMSPVQGKLDGRIRAQNPEEFLERLSQEYHFQWFVYNDTLYVSPSSEHTSARIEVSPDAVDDLQTALTDVGLLDKRFGWGSLPDEGVVLVRGPAKYVEFVRDYSKKVEKPDEKADKQDVVVLPLKYANAADRTIRYRDQQLVVAGVASILQELLESRSRGESIDSVNLLPGQGSSVANSTGVAAAGLPYNLGSNGIDTGALQQGIDRVLNFNSKKTAKGHASGKANIRVSADVRNNSVLIYDLPERKAMYQKLVKELDVPRNLIEIDAVILDIDRNELAELSSRWNFNAGSVGGGANLFDAGTSSTLFLQNASKFSAELHALEGNGSASVIGNPSILTLENQPAVIDLSRTEYLTATSERAADILPITAGTSLQVIPRSLDNDGKPQVQMIVDIEDGQIDVSTINDTQPSVRRGNVSTQAVIAEHGSLVIGGFHGLEANDRIHKIPLLGDIPYIGKLLFQSRSRELSQRERLFILTPRLIGDQVNPARYVQNGNPHDVDDQMKKIKERRDGGELPTRGDIQKVFTQMIDGAAPEGLRAGQTLPFETDSLCDPGEGLTLDGQRSQWFVKKDWGVAVVVARNNTDKPVRIDESRCGGRWVIGVAAWPHAWLQPGEESEVYIAVRQPQISKMAKESRPSLLRGAKP | failed
11 | MQELLFIRLNELILLIYLFSIACYFFDFIKRFYKIRNIGFVTLGIVWVLQTISLSFYVTATNQVPLGNVFDVLFALAWLIISISIVISVIKQVNISIFLFNIIGFVFIAISTFQPMHYQGAGEKLNVINELLIVHVTFAIISYAIFAFAFVNSILYLIQFKNLKQKRFTQKYFRISSVATLEKVVFYNSLVGFLFIILSIILGAQWGINTIGMDIFVDPKVIMSVIITILYGLYLLLRVRQSISKHKLIYINIILFCLNMINLLFTSHVSDFHQWTGI | failed
12 | MNEFETLLNSVEDVKVRDVVKGEILSVENGQATVAIVGTGVEGVLTLREITNDKDADINTFVKPGDVLDLLVIKQIVGKEAEGANVYLLSLKRLEARKAWTQLEGKEGEIVTVKVTKDVKGGLSVDYNGVRGFIPASMIDTYFVKDTKKFVGEEIEAKIIEVNASENRFILSRRAVVEAEAIEMRKEAFAQLQEGDIVEGTVSRVTNFGAFVDLGGIDGLVHVSELSHSRIKRPSDAVKPGDVVNVKILKLDPEAGRLSLSLKATQPGPWEQVEEKAPVGSTVEGTVKRLTDFGAFVELYPGVEGLVHVSQISWERVENPKDVLKVGQVVNVKVLDVKPAEERISLSIKALEEAPARPARNNDNDGEKRDRKPRAPRKAAKPSYDLPETQEGFSLADFLGEDFDINDLLEHHHHHH | not failed
13 | MGCRATQRESVGFADKIRYTERRFISVFGVPLLIQLICQAPQRAQELEQIAARWQLQASDDSPFALVLSEERLELRKLDEPKLGAIYVDWVEGAVAHRRKFGGGKGQSIAKAAGLNKGVTPVVLDATAGLGRDAFVLASLGCRVQMVERHPVVAALLEDGLQRAKQDDEIGAWVSERISLLHASSHDALQQLASDPNFTSPDVVYLDPMYPHPENKKKTALVKKEMRVFQSLVGADNDADALLEPALQLAQKRVVVKRPDYAPWLGNRKPSMAMETKKNRFDVYVIAAMSGE | failed
14 | MLHRSPKRMVAVALFLACLVISLTTVTFAAPAPTIQIQNPMVEGIRSPLRIASDSLGGVYVSDSLAKGVLKYDVVGHLAQTIKTAAPPQGIAVASDGTLLVGQGTYVSMYSAAGQEIGKLGAGEGQFKMADGITVDDDGSIYVVDCLDNSVQIFNAAGSFVKKFGSFGTTPGKFSTPSGIAFEKVSRQVAVVDTRTGRIQFFDKTGAYVRTIGSFGTNPLRFTAPQGVSFEYSSGSTPVLKRMYVVDTFQSTVQAIDPAATPVFLSYIGTYGSGNGKLMVPSDVLFDQATGRLLVVNGFGNVSVYGVDGGGVSVAVDLIPPALTINPVVSPFMSPTLDLSGTVEAGARLTIATGGTTTVGAISFPTPTTWQTTLSGFAPGGTTITVTARDAANNATNQSVTVSYLQSGPMLTMEPLPTFTADTFQQLSGLVDPGSVVTVTNATTGASAKALVFGNTWSYRLPLAAGANSITVKAEKSMSAATTVSATTTLDAIPPALAVSALADGSYTSGQVQNIQVMVTDANLDVVTLNGQQIVPVNGSYSTAITLKPGPNVIMAAAVDLAGNVTTDIRTIIYDGTRPVVSFTTPAEGTYVTSDHVSVSGIVDETAVVTVAGLPARMDGTSWSADVPLVPGMNTIDVVAVDLAGNVGSVKRTVTYDTEAPALVVSAPSQDVVTNRPTFGFAGNVTDPSPVTLTAEVDGAPVAVTVTDGSFTLAVTFANEGSHAVTFTATDAAGNASRVTRTVIYDGTAPALTLDPVNTPYPSVLTGTVEAGAAVTVEDRNGSAGTVTVSGEKWNAALEVGGYDAASLAVRATDVAGNSTVRSLVVNVPDGDLNGDGAVTVHDVILALRMFTRQMVPTANQLAHGDIGPLYQGKAKPNGVVDLVDAILIMRKALGMPSW | failed
15 | MTEKRRRLPRPEKAILWPASYLHHRSVTQQLPIMSTPHTDFFGLTIPFMQLLGVVPEHSGNGTARTRLPARADLVNSRGDIHGGTLMSVLDFTLGAAIRGDTPEVGVATIDMNTSFMSPGRGDLVIETRCLRRGASIAFCEGEIRDSAGELVAKATATFKIIQRRPGGD | failed
16 | QAQITGRPEWIWLALGTALMGLGTLYFLVKGMGVSDPDAKKFYAITTLVPAIAFTMYLSMLLGYGLTMVPFGGEQNPIYWARYADWLFTTPLLLLDLALLVDADQGTILALVGADGIMIGTGLVGALTKVYSYRFVWWAISTAAMLYILYVLFFGFTSKAESMRPEVASTFKVLRNVTVVLWSAYPVVWLIGSEGAGIVPLNIETLLFMVLDVSAKVGFGLILLRSRAIFGEAEAPEPSAGDGAAATSD | failed
17 | KTFAALGSGVIGSGWIARALAHGLDVVAWDPAPGAEAALRARVANAWPALRKQGLAPGAAQERLRFVASIEECVGDADFIQESAPERLDLKLDLHARISAAARPDVLIGSSTSGLLPSEFYAEASHPERCLVGHPFNPVYLLPLVEVVGGERTAAEAVRAAMRVYESLGMRPLHVRKEVPGFIADRLLEALWREALHLVNDGVATTGEIDDAIRFGAGLRWSFMGTFLTYTLAGGNAGMRHFMAQFGPALQLPWTYLPAPELTEALIDRVVEGTAEQQGARSIAELERYRDDCLLAVLGAIRETKARHGFA | failed
18 | MKFLELNKKRHATKHFTDKLVDPKDVRTAIEIATLAPSAHNSQPWKFVVVREKNAELAKLAYGSNFEQVSSAPVTIALFTDTDLAKRARKIARVGGANNFSEEQLQYFMKNLPAEFARYSEQQVSDYLALNAGLVAMNLVLALTDQGIGSNIILGFDKSKVNEVLEIEDRFRPELLITVGYTDEKLEPSYRLPVDEIIEKR | not failed

Reference: a protein production outcome set (Wang et al. 2014)
